Reference: patent US20230220589A1
Positions count from the first letter of the chain named.

Legend:
[1] = molecular target: M44-modified A NTAA target peptides (M44-A-P2-peptide); assay: encoding assay; P2 M;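 note: fraction of recording tags encoded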
[2] = molecular target: M44-modified D NTAA target peptides; assay: encoding assay; P2 M;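 note: fraction of recording tags encoded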
[3] = molecular target: M44-modified Q NTAA target peptides; assay: encoding assay; P2 M;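 note: fraction of recording tags encoded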
[4] = molecular target: M44-modified W NTAA target peptides; assay: encoding assay; P2 M;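 note: fraction of recording tags encoded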
[5] = molecular target: M44-modified E NTAA target peptides; assay: encoding assay; P2 V;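 note: fraction of recording tags encoded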
[6] = molecular target: M44-modified G NTAA target peptides (M44-G-P2-peptide); assay: encoding assay; P2 V;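 note: fraction of recording tags encoded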
[7] = molecular target: M44-modified L NTAA target peptides (M44-L-P2-peptide); assay: Gini coefficient of P1 selectivity from multiplex encoding heatmap
[8] = molecular target: M17-modified A NTAA target peptides; assay: encoding assay; P2 F;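 note: fraction of recording tags encoded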
[9] = molecular target: M17-modified D NTAA target peptides; assay: encoding assay; P2 F;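 note: fraction of recording tags encoded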
[10] = molecular target: M17-modified E NTAA target peptides; assay: encoding assay; P2 F;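 note: fraction of recording tags encoded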
[11] = molecular target: M17-modified F NTAA target peptides; assay: encoding assay; P2 F;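 note: fraction of recording tags encoded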
[12] = molecular target: M17-modified G NTAA target peptides; assay: encoding assay; P2 F;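 note: fraction of recording tags encoded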
[13] = molecular target: M17-modified H NTAA target peptides; assay: encoding assay; P2 F;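 note: fraction of recording tags encoded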
[14] = molecular target: M17-modified I NTAA target peptides; assay: encoding assay; P2 F;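 note: fraction of recording tags encoded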
[15] = molecular target: M17-modified L NTAA target peptides; assay: encoding assay; P2 F;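 note: fraction of recording tags encoded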
[16] = molecular target: M17-modified M NTAA target peptides; assay: encoding assay; P2 F;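 note: fraction of recording tags encoded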
[17] = molecular target: M17-modified N NTAA target peptides; assay: encoding assay; P2 F;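 note: fraction of recording tags encoded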
[18] = molecular target: M17-modified P NTAA target peptides; assay: encoding assay; P2 F;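 note: fraction of recording tags encoded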
[19] = molecular target: M17-modified Q NTAA target peptides; assay: encoding assay; P2 F;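 note: fraction of recording tags encoded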
[20] = molecular target: M17-modified S NTAA target peptides; assay: encoding assay; P2 F;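 note: fraction of recording tags encoded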
[21] = molecular target: M17-modified T NTAA target peptides; assay: encoding assay; P2 F;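 note: fraction of recording tags encoded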
[22] = molecular target: M17-modified V NTAA target peptides; assay: encoding assay; P2 F;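 note: fraction of recording tags encoded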
[23] = molecular target: M17-modified W NTAA target peptides; assay: encoding assay; P2 F;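 note: fraction of recording tags encoded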
[24] = molecular target: M17-modified Y NTAA target peptides (M17-Y-P2-peptide); assay: encoding assay; P2 F;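 note: fraction of recording tags encoded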
[25] = molecular target: M17-modified A NTAA target peptides; assay: encoding assay; P2 M;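 note: fraction of recording tags encoded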
[26] = molecular target: M17-modified D NTAA target peptides; assay: encoding assay; P2 M;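 note: fraction of recording tags encoded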
[27] = molecular target: M17-modified E NTAA target peptides; assay: encoding assay; P2 M;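 note: fraction of recording tags encoded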
[28] = molecular target: M17-modified F NTAA target peptides; assay: encoding assay; P2 M;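 note: fraction of recording tags encoded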
[29] = molecular target: M17-modified H NTAA target peptides; assay: encoding assay; P2 M;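 note: fraction of recording tags encoded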
[30] = molecular target: M17-modified I NTAA target peptides; assay: encoding assay; P2 M;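 note: fraction of recording tags encoded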
[31] = molecular target: M17-modified L NTAA target peptides; assay: encoding assay; P2 M;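 note: fraction of recording tags encoded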
[32] = molecular target: M17-modified P NTAA target peptides; assay: encoding assay; P2 M;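 note: fraction of recording tags encoded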
[33] = molecular target: M17-modified Q NTAA target peptides; assay: encoding assay; P2 M;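 note: fraction of recording tags encoded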
[34] = molecular target: M17-modified S NTAA target peptides; assay: encoding assay; P2 M;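 note: fraction of recording tags encoded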
[35] = molecular target: M17-modified V NTAA target peptides; assay: encoding assay; P2 M;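 note: fraction of recording tags encoded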
[36] = molecular target: M17-modified W NTAA target peptides; assay: encoding assay; P2 M;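 note: fraction of recording tags encoded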
[37] = molecular target: M17-modified A NTAA target peptides; assay: encoding assay; P2 V;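 note: fraction of recording tags encoded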
[38] = molecular target: M17-modified D NTAA target peptides; assay: encoding assay; P2 V;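 note: fraction of recording tags encoded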
[39] = molecular target: M17-modified E NTAA target peptides; assay: encoding assay; P2 V;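 note: fraction of recording tags encoded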
[40] = molecular target: M17-modified F NTAA target peptides; assay: encoding assay; P2 V;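 note: fraction of recording tags encoded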
[41] = molecular target: M17-modified G NTAA target peptides; assay: encoding assay; P2 V;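 note: fraction of recording tags encoded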
[42] = molecular target: M17-modified H NTAA target peptides; assay: encoding assay; P2 V;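 note: fraction of recording tags encoded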
[43] = molecular target: M17-modified I NTAA target peptides; assay: encoding assay; P2 V;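 note: fraction of recording tags encoded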
[44] = molecular target: M17-modified L NTAA target peptides; assay: encoding assay; P2 V;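 note: fraction of recording tags encoded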
[45] = molecular target: M17-modified M NTAA target peptides; assay: encoding assay; P2 V;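 note: fraction of recording tags encoded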
[46] = molecular target: M17-modified N NTAA target peptides; assay: encoding assay; P2 V;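 note: fraction of recording tags encoded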
[47] = molecular target: M17-modified P NTAA target peptides; assay: encoding assay; P2 V;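 note: fraction of recording tags encoded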
[48] = molecular target: M17-modified Q NTAA target peptides; assay: encoding assay; P2 V;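 note: fraction of recording tags encoded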
[49] = molecular target: M17-modified S NTAA target peptides; assay: encoding assay; P2 V;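 note: fraction of recording tags encoded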
[50] = molecular target: M17-modified V NTAA target peptides; assay: encoding assay; P2 V;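 note: fraction of recording tags encoded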
[51] = molecular target: M17-modified W NTAA target peptides; assay: encoding assay; P2 V;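 note: fraction of recording tags encoded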
[52] = molecular target: M17-modified Y NTAA target peptides (M17-Y-P2-peptide); assay: encoding assay; P2 V;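 note: fraction of recording tags encoded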
[53] = molecular target: M17-modified Y NTAA target peptides (M17-Y-P2-peptide); assay: Gini coefficient of P1 selectivity from multiplex encoding heatmap
[54] = molecular target: M44-modified V NTAA target peptides; assay: encoding assay; P2 V;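 note: fraction of recording tags encoded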

B1: engineered M44-L binder (SEQ ID NO: 31) (designed binder, not shown: small tags and cut ends; large carriers)
chain: QDSTQNLIPAPPLISVPLQPGFWTERFQGRWFLVGFAGNAVQKERQSRLTMQSLILELQEDNSYNITAINVRGQGCRYIISTLVPSSRPGQFTLGNIHSYPQIQSLDVQVADTDYDQFAMVFLQGTSENKQYFEVALAGRTKGLSDELKERFVSFAKSLGLKDNNIVFSVPTDQCIDN
0.03: encoding yield [4]
0.02: encoding yield [1]
0.332: P1 score [7]
0.01: encoding yield [2] | encoding yield [3] | encoding yield [5] | encoding yield [6]

B2: engineered M17-Y binder (SEQ ID NO: 61) (designed binder, not shown: small tags and cut ends; large carriers)
chain: TVPDRSEIAGKWYVVALASNTEFYLREKDWVKSAMARISFLGEDELKVSSAVPSPNGCYKVERTWKKTSDDGEVYNSRAAKLKVEVLDTDYKSYAVIYATRVKDGRTDHQMILYSRSPEVSPAATAIFRKLAGERNYTDEMVAMLPRQEECTVDEV
0.13: encoding yield [40]
0.06: encoding yield [14] | encoding yield [30]
0.05: encoding yield [23] | encoding yield [43]
0.02: encoding yield [8] | encoding yield [9] | encoding yield [17] | encoding yield [19] | encoding yield [20] | encoding yield [21] | encoding yield [22] | encoding yield [26] | encoding yield [27] | encoding yield [31] | encoding yield [32] | encoding yield [37] | encoding yield [44] | encoding yield [45] | encoding yield [46] | encoding yield [47] | encoding yield [48] | encoding yield [49]
0.01: encoding yield [18] | encoding yield [25] | encoding yield [29] | encoding yield [33] | encoding yield [34] | encoding yield [36] | encoding yield [39] | encoding yield [41] | encoding yield [50]
0.07: encoding yield [11]
0.03: encoding yield [12] | encoding yield [13] | encoding yield [16] | encoding yield [28] | encoding yield [35] | encoding yield [38]
0.04: encoding yield [10] | encoding yield [15] | encoding yield [42] | encoding yield [51]
0.22: encoding yield [52]
0.2: encoding yield [24]
0.196: P1 score [53]

B3: upgraded binder after additional maturation round (SEQ ID NO: 62) (designed binder, not shown: small tags and cut ends; large carriers)
chain: B2 chain with E27G, W30R, A36V, L41Q, G105R, E119D
0.204: P1 score [53]
0.32: encoding yield [52]
0.28: encoding yield [24]
0.08: encoding yield [51]
0.07: encoding yield [43]
0.1: encoding yield [11] | encoding yield [30]
0.01: encoding yield [29] | encoding yield [33] | encoding yield [34] | encoding yield [50]
0.03: encoding yield [17] | encoding yield [19] | encoding yield [21] | encoding yield [27] | encoding yield [32] | encoding yield [35] | encoding yield [36] | encoding yield [37] | encoding yield [38] | encoding yield [44] | encoding yield [45] | encoding yield [46] | encoding yield [47] | encoding yield [49]
0.05: encoding yield [15] | encoding yield [16]
0.04: encoding yield [8] | encoding yield [10] | encoding yield [12] | encoding yield [13] | encoding yield [31] | encoding yield [42]
0.17: encoding yield [40]
0.06: encoding yield [14] | encoding yield [28]
0.11: encoding yield [23]
0.02: encoding yield [9] | encoding yield [18] | encoding yield [20] | encoding yield [22] | encoding yield [25] | encoding yield [26] | encoding yield [39] | encoding yield [41] | encoding yield [48]

B4: engineered M44-L binder (SEQ ID NO: 21) (designed binder, not shown: small tags and cut ends; large carriers)
chain: QVSVQPNFQQDKFLGRWFYAGHASNSSWYREKVAALSMAKLVVAPATDGGLNATETFLRKNQCETITSLLQPAGSLGSYSSRSPHGGSTWSTSVVETDYDQYALLYLQGSKGPGEDFRGAILASRTQTPRAELKEKFTAFSKAQGFTEDTIVFLPQTDKCMTEQ
0.412: P1 score [7]
0.01: encoding yield [54]

B5: engineered M44-A binder (SEQ ID NO: 42) (designed binder, not shown: small tags and cut ends; large carriers)
chain: QVSVQPNFQQDKFLGRWFVAGLASNSSWDREKVAALSGAKMVVAPATDGGLNVTRTMLRKNQCETYTGLLQPAGSLGSYSWRSPHPGSTGSESVVETDYDQYALVYGQGSKGPGEDLRAAALWSRTQTPRAELKEKFTAFSKAQGFTEDTIVFLPQTDKCMTEQ
0.03: encoding yield [5]
0.02: encoding yield [2]
0.01: encoding yield [3] | encoding yield [4] | encoding yield [6] | encoding yield [54]
0.1: encoding yield [1]
